Measurements taken from article PMC4434759.

Target: PsIAA4 PB1^AM3 (D151A/D153A/D155A) (pea (Pisum sativum))
Experiment: ITC

Kd: 6.4 µM | stoichiometry N: 1
Substance: PsIAA4 PB1^BM3 (K96A/R106A/K107A) (domain or fragment)
